Measurements taken from the supplement of paper PMC9170038.

Test system: MS2 coat protein
Assay: apparent KD of MS2 coat protein; higher = weaker reporter binding
Conditions: Eterna round: R107
Method in brief: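 Titration buffer: 100 mM Tris-HCl pH 7.5, 80 mM KCl, 4 mM MgCl2, without or with constant ligand. Designed RNA switches transcribed on-chip from Illumina sequencing clusters received SNAP-549-labelled MS2 coat protein in twofold steps from 0.7 or 1.5 nM to 3 µM. Apparent KD is the median per design of fits to normalised cluster binding curves.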

[1] = input ligand: theophylline 20 uM
[2] = input ligand: theophylline 2 mM
[3] = input ligand: tryptophan 2.4 mM

| Sequence | apparent KD of MS2 coat protein (input ligand: arginine 13.2 mM) | apparent KD of MS2 coat protein [1] | apparent KD of MS2 coat protein [2] | apparent KD of MS2 coat protein [3] | apparent KD of MS2 coat protein (input ligand: none) |
| --- | --- | --- | --- | --- | --- |
| AACUACUCGAGGUGAUCCUACGAGUGGCAACGAGGACCGGUACGGCCGCCACUCGAAUAAACAUGAGGAUCACCCAUGUACAAAU [T''-M'-T'-T-MS2 - Design 12] | 92.2 nM | 259 nM | 220 nM | – | – |
| AAUGCUGCCAAGGAUUCCUCAUGAGCAGAUACCAGCUAGGAAACUAGCCCUUGGCAGCUGCAACAUGAGGAUCACCCAUGUAAUA [(T)'-(M)'-(T1)-(T2)-(M1)-(M2)_Design7] | 31 nM | 94.2 nM | – | 35.7 nM | – |
| ACAUUGCGCUCGGCCGCCACUGGCUUAUGAUUAUAAGCAUUAAUGAACAUGAGGAUCACCCAUGUCAGGACCGGGAGCGAACCAU [SSTryp B #7] | 13.6 nM | 17.7 nM | 14.9 nM | – | – |
| AGCAGCUCGAAAGAGUUGCACUCAUGUGAAGGAGCGCCCGUUAGGGCAGGUAGGUCGCACAUGAGGAUCACCCAUGUACCUUCUA [ArgAX 20 #OpenEnded #MS2Late] | 84.4 nM | 182 nM | 273 nM | 188 nM | 174 nM |
| GAGUAGAGGACGGCCGCCACUGAACAUGAGGAUCACCCAUGUCGUGAUCCGUUACCUAAAGAAGAUAGGACCGGGUCAUGUACUC [Exclusion Tryptophan B GF 19] | 28.9 nM | 41.7 nM | 32.7 nM | – | – |
| AUAACAUGAGGAUCACCCAUGUAAGCAGAUACCAGCUAGGAAACUAGCCCUUGGCAGCUGCAAUCAUGGGUGUUUGCAGCUGCAA [(M1)-(M2)-(T1)-(T2)-(M)'-(T)'_Design2] | 21.2 nM | 36.9 nM | 19.9 nM | 13 nM | 18.1 nM |
| ACCUGUACGAAAAGUGCAGGACACGGAAUACGAGGACCGGUACGGCCGCCACUCGGAACCUGAGGAUCACCCUGGUAAAACCGUG [TrypAS 13 #AlternativeMS2 #Zipper #StaticStem] | 19.9 nM | 22.6 nM | 24 nM | 19.5 nM | 17.8 nM |
| UUUACAUGAGGAUCACCCAUGUGCCAUGAUACCAGACAUGAAAAUGUCCCUUGGCAGCAUGAGUGAUAUGCGUCGGAAACGACGC [Jundrov] | 499 nM | 102 nM | 1210 nM | 194 nM | 153 nM |
| AAUUCCUAACAUGAGGAUCACCCAUGUGAAGGAGCGCCGAAUAAGGCAGGUAGGUCGCACAUGGAACUGCUACGAAAGUAGAAAA [XArg-A 4 V2mod] | 19.2 nM | 23.3 nM | 35.1 nM | 18.8 nM | 16.2 nM |
| UCAGCACAUGAGGAUCACCCAUGUCGUGAUACCAGCCUGUGCGAAGGCCCUUGGCAGCACAGUCCCGAUUUGCUUAUAUGCACUU [theeternabot_sameState_MS2_Theo_A_48] | 32.4 nM | 61 nM | – | 34.4 nM | – |
| UUAUAAGUACCGGUCCUCAGAUCCUCAUGACGAGGACCGGUACGGCCGCCACUCGAAACAUGAGGAUCACCCAUGUAAUAAUACC [Brourdmod12] | 36.6 nM | 71.5 nM | 54.2 nM | – | – |
| UCGUGUCUAUUGGUUUAGCUUUAAUCGUUACGAGGACCGGUACGGCCGCCACUCGAUUUAACAUGAGGAUCACCCAUGUACUCUC [JR_ExcTryptoA_Sub012] | 17.5 nM | 26.6 nM | 21.4 nM | – | – |
| GUAUAUAUGCGAAGGAGCGGGAAAUAUAUAUAUAUAAUCCUAACAUGAGGAUCACCCAUGUCCCAGGUAGGUCGCGCAUAUAUAU [12.B] | 68.7 nM | 86.9 nM | 83.6 nM | 76.1 nM | 69.6 nM |
| AAUAACAAGAGGAUCACCCUUGUAAAAGAUACCAGAGUGAUGAUCCUCCCUUGGCAGCUUAACGCUGAUUGAUUACAAUCAGCGA | 27 nM | 81.8 nM | 142 nM | 32 nM | 35.5 nM |
| UCUUGGUCCGCAAGGACCGUGAGUUGCGAUACCAGCACGGUAACGUGCCCUUGGCAGCGCACAUGAGGAUCACCCAUGUGGUGUU [#1 Exclusion - Theophylline A Attempt #15 (HarryS)] | 71.6 nM | 520 nM | – | 210 nM | – |
